Assay results from article PMC9198058.

Legend:
[1] = target: Catalytically inactive recombinant S195A thrombin mutant (UniProt P00734); assay: other fluorescence titration
[2] = target: Nα-fluoresceinated hirugen ([F]-hirugen); assay: other fluorescence titration

Row | Substance | increase of [F]-hirugen fluorescence on displacement [1] [%] | Kd [2] [µM]
1 | Hirugen (54…*LQ65) (peptide) | 65 | 
2 | Catalytically inactive recombinant S195A thrombin mutant (from UniProt P00734 44-622) (enzyme) |  | 0.03
